Measured values as given in patent US20260167731A1 (DOMAIN THERAPEUTICS, published 2026).
Where “and” joins values, the source holds several entries; their conditions need not be identical. Identical values can stand only once.

Key:
[1] = target: T1, human CCR8 (human, UniProt P51685 1-355); assay: cell-based or functional assay
[2] = target: T1, human CCR8; assay: cell-based or functional assay; remark: listed apart in the source
[3] = target: T1, human CCR8; assay: cell-based or functional assay; remark: listed apart in the source
[4] = target: T1, human CCR8; assay: cell-based or functional assay; remark: listed apart in the source
[5] = target: T1, human CCR8; assay: cell-based or functional assay; remark: listed apart in the source
[6] = target: pm6, modified CCR8 related peptide (human, sulfated tyrosines at Y16 and Y17); assay: ELISA on coated CCR8 peptide (500 ng/mL), OD [cont.]
Chain of pm6, modified CCR8 related peptide (human, sulfated tyrosines at Y16 and Y17) (peptide, as listed by the source): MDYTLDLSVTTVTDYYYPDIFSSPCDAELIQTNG
Procedure, shortened: (§1)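 In this direct ELISA, CCR8-related peptides coated at 500 ng/mL are probed with anti-CCR8 mAbs (1 μg/mL, also 1/10 dilution; 90 min, room temperature). Read-out is TMB optical density.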

[7] = target: pm1, modified CCR8 related peptide (human, sulfated tyrosine at Y15); assay: as above
Chain of pm1, modified CCR8 related peptide (human, sulfated tyrosine at Y15) (peptide, as listed by the source): as above
Procedure, shortened: as §1

[8] = target: pm8, modified CCR8 related peptide (human, sulfated tyrosines at Y15, Y16 and Y17); assay: as above
Chain of pm8, modified CCR8 related peptide (human, sulfated tyrosines at Y15, Y16 and Y17) (peptide, as listed by the source): as above
Procedure, shortened: as §1

[9] = target: pm5, modified CCR8 related peptide (human, sulfated tyrosines at Y15 and Y17); assay: as above
Chain of pm5, modified CCR8 related peptide (human, sulfated tyrosines at Y15 and Y17) (peptide, as listed by the source): as above
Procedure, shortened: as §1

[10] = target: pm2, modified CCR8 related peptide (human, sulfated tyrosine at Y16); assay: as above
Chain of pm2, modified CCR8 related peptide (human, sulfated tyrosine at Y16) (peptide, as listed by the source): as above
Procedure, shortened: as §1

[11] = target: T2, pwt1, unmodified CCR8 related peptide (human, none (non-sulfated Y15, Y16, Y17)); assay: as above
T2 construct: First 34 amino acids of human CCR8, synthetic; also called unmodified peptide
T2 sequence (peptide, as listed by the source): as above
Procedure, shortened: as §1

[12] = target: pm3, modified CCR8 related peptide (human, sulfated tyrosine at Y17); assay: as above
Chain of pm3, modified CCR8 related peptide (human, sulfated tyrosine at Y17) (peptide, as listed by the source): as above
Procedure, shortened: as §1

[13] = target: pm4, modified CCR8 related peptide (human, sulfated tyrosines at Y15 and Y16); assay: as above
Chain of pm4, modified CCR8 related peptide (human, sulfated tyrosines at Y15 and Y16) (peptide, as listed by the source): as above
Procedure, shortened: as §1

[14] = target: T1, human CCR8; assay: flow cytometry, HUT78 cells (endogenous CCR8)
Procedure: The same staining protocol was applied on human CCR8 transfected CHO cell line versus wild type CHO cell line, cutaneous T cell lymphoma HUT78 cell line and human activated T cell model.
Briefly, 1·10⁵ cells per well in a 96 well plate were incubated with a dilution of unconjugated anti-CCR8 mAb at 10 μg/mL then diluted at 1/3.33, 4 dilution points (during 30 min at 4° C.). In human activated T cells model, prior to mAb incubation, cells were first incubated with 200 nM of hCCL1 (R&D Systems, Minneapolis, MN, USA) or buffer PBS (Invitrogen by Thermofisher Scientific, Illkirch-Graffenstaden, France) supplemented by 2% Fetal Bovine Serum (Invitrogen by Thermofisher Scientific, Illkirch-Graffenstaden, France) and 2 mM EDTA (Invitrogen by Thermofisher Scientific, Illkirch-Graffenstaden, France) during 1 hour at 4° C. To determine EC50 value, 8 concentrations of anti-CCR8 mAb were tested. Unbound antibodies were washed away with PBS (Invitrogen by Thermofisher Scientific, Illkirch-Graffenstaden, France) supplemented by 2% Fetal Bovine Serum (Invitrogen by Thermofisher Scientific, Illkirch-Graffenstaden, France) and 2 mM EDTA (Invitrogen by Thermofisher Scientific, Illkirch-Graffenstaden, France). Subsequently, cells are centrifuged (5 min at 400 g) and bound antibody is detected with F(ab′)₂-Goat anti-Mouse IgG (H+L) Cross-Adsorbed Secondary Antibody, Alexa Fluor 488 (dilution 1/500) (Invitrogen by Thermofisher Scientific, Illkirch-Graffenstaden, France) or with F(ab′)₂-Goat anti-Human IgG Fc Secondary Antibody, PE (Invitrogen by Thermofisher Scientific, Illkirch-Graffenstaden, France) (dilution 1/1000) at 4° C. for 30 min. Detection reagent is washed away and cells are centrifuged (5 min at 400 g) and resuspended in 30 μL PBS. Bound detection antibody is quantified on a MacsQuant16 (Miltenyi, Gladbach, Germany) (B1 or B2 channel, 5000 events per acquisition). During the experiment, the respective isotype mAb controls (mouse IgG1, mouse IgG2a, mouse IgG2b, mouse IgG3 or human IgG1) (Biolegend, Amsterdam, The Netherlands) are included to exclude any unspecific binding events.
EC50 values were determined via nonlinear fit “log(agonist)vs.response−Variable slope (four parameters)” function of Graphpad prism. EC50 values were not constantly determined in the same experiments.

[15] = target: T1, human CCR8; assay: cell-based or functional assay; remark: listed apart in the source
[16] = target: T3, hCCR8 SNAP-tag (human, UniProt P51685 1-355, SNAP-tag labelled with Lumi4-Terbium); assay: HTRF Tag-lite, inhibition of hCCL1-AF647 binding to SNAP-tag hCCR8 on HEK-293
T3 construct: also called human CCR8 engineered with a SNAP-tag at the N-terminus; not shown: SNAP-tag at the N-terminus
Procedure: The inhibition of CCL1 binding to hCCR8 was evaluated with the Tag-Lite® technology from Cisbio (Revvity). Human CCR8 is engineered with a SNAP-tag at the N-terminus of the GPCR. hCCR8 SNAP-tag is transiently transfected on HEK-293 cell line using FuGene® (Promega, Madison, WI, USA). 48 hours after transfection, cells are labeled with the substrate Lumi4-Terbium® (Cisbio, Codolet, France) which covalently reacts with the SNAP-tag, for 1 h at 37° C. […] The Kd is previously obtained in a saturation binding assay on the same cells. […] The plate is next incubated at 21° C. for 2 h. Detection of HTRF signal is performed on the multiplate reader EnVision (PerkinElmer, Waltham, MA, USA). The HTRF (665/620) ratio is calculated by EnVision software, the data exported are considered as the total binding. The specific binding is calculated then by subtracting the non-specific signal from the total binding. The Ki and IC₅₀are calculated using the “One site—Fit Ki” and “One site—FitlogIC50” from GraphPad Prism 9 (Graphpad Software, San Diego, CA, USA), respectively.

[17] = target: T4, CD20 (on B cells) (human, UniProt P11836); assay: flow cytometry on PBMC of healthy donors, B cell gate (CD3-CD19+), % of binding, mean of two donors
T4 construct: native on the surface of B cells (CD3-CD19+) in PBMC of healthy donors; the sheet names the cell type only
T4 sequence (single chain, looked up): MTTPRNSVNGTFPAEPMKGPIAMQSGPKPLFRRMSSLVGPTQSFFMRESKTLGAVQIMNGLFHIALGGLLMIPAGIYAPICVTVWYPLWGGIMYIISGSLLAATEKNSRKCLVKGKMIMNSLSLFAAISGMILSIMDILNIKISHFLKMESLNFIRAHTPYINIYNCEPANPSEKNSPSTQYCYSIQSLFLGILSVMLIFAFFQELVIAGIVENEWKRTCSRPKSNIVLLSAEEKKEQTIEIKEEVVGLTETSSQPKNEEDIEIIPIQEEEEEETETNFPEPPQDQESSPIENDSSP

B1: chimeric anti-CCR8 mAb 2-18 (antibody, human IgG1, kappa)
heavy: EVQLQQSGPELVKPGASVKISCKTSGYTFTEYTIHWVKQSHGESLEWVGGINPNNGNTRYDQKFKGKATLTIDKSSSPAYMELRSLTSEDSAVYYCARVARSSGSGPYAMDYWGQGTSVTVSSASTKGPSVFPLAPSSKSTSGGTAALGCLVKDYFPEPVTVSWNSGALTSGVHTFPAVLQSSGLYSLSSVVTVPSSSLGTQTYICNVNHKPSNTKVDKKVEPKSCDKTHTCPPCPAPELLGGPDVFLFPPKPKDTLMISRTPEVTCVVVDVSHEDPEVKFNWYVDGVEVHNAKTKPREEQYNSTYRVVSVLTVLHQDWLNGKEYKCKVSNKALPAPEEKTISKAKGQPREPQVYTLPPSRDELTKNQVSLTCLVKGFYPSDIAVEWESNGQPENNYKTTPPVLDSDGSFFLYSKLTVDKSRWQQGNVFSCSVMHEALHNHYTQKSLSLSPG
light: DVVMTQTPLSLPVSLGDQASISCRCTQSLLHTNGDTYLHWYLQKPGQSPKLLIYKVSNRFSGVPDRFSGSGSGTDFTLKISRVEAEDLGVYFCSQSTHVPYTFGGGTKLEIKRTVAAPSVFIFPPSDEQLKSGTASVVCLLNNFYPREAKVQWKVDNALQSGNSQESVTEQDSKDSTYSLSSTLTLSKADYEKHKVYACEVTHQGLSSPVTKSFNRGEC
With B1 the “ADCP % Max of phagocytosis, HUT78 targets, monocyte-derived macrophages Donor 9” value (“ADCP % Max of phagocytosis” for short) [1] was 7.27%, the “ADCC % Max lysis, HUT78 targets, NK cells Donor 3” value [2] was 25% and the “ADCC % Max lysis, HUT78 targets, NK cells Donor 4” value [2] was 28%. For the same binder, the “ADCC EC50, HUT78 targets, NK cells Donor 3” value [2] was 218 pM and the “ADCC EC50, HUT78 targets, NK cells Donor 4” value [2] was 53 pM.

B2: humanized anti-CCR8 mAb 2-13 (antibody, human IgG1, kappa)
heavy: not shown
light: DIVMTQAAPSLSVTPGESASISCTSSKSLLHSNGNTYLYWFLQKPGQSPQLLIYRMSNLASGVPDRFSGSGSGTAFTLKISRVEAEDVGVYYCMQHREYPFTFGSGTKLEIKRTVAAPSVFIFPPSDEQLKSGTASVVCLLNNFYPREAKVQWKVDNALQSGNSQESVTEQDSKDSTYSLSSTLTLSKADYEKHKVYACEVTHQGLSSPVTKSFNRGEC
notes: Humanized, human IgG1 allotype G1m17 Fc with the terminal lysine deleted and the SDIE mutations
In the case of B2, the “ADCP % Max of phagocytosis” value [1] is reported as 9.65%, the “IC50, CCL1 induced hCCR8 Gi2 signaling (BRET, HEK-293)” value [3] is reported as 0.035 µg/mL and 0.232 nM and the “IC50, CCL1 induced hCCR8 Gi2 signaling (BRET) at pH 6.5” value [4] is reported as 0.025 µg/ml and 0.165 nM. The “IC50, CCL1 induced hCCR8 Gi2 signaling (BRET) at pH 7.4” value [4] was 0.035 µg/ml and 0.232 nM, the “hCCL1 (100 nM) residual response in %, Protocol #2, mAb 0.08 µg/mL ([…] nM)” value [5] was 74% and the “hCCL1 (100 nM) residual response in %, Protocol #2, mAb 0.4 µg/mL (2.67 nM)” value [5] was 54%. For the same binder, the “hCCL1 (100 nM) residual response in %, Protocol #2, mAb 10 µg/mL (66.7 nM)” value [5] was 40%, the “hCCL1 (100 nM) residual response in %, Protocol #3, mAb 0.05 µg/mL (0.33 nM)” value [5] was 89% and the “hCCL1 (100 nM) residual response in %, Protocol #3, mAb 0.5 µg/mL (3.33 nM)” value [5] was 63%. For the same binder, the “hCCL1 (100 nM) residual response in %, Protocol #3, mAb 5 µg/mL (33.3 nM)” value [5] was 51%, the binding result [6] was “binds” and the binding result [7] was “binds”. B2: binds [8]; binds [9]; binds [10]. B2: binds [11]; binds [12]; binds [13]. The “% of labelled cells” value [14] was 32%, the “ADCC EC50, HUT78 targets, NK cells Donor 1” value [15] was 6.43 pM and the “ADCC EC50, HUT78 targets, NK cells Donor 2” value [15] was 2.16 pM. For the same binder, the IC50 [16] was 0.09 µg/mL and 0.6 nM and the Ki [16] was 0.05 µg/mL and 0.3 nM.

B3: afucosylated humanized anti-CCR8 mAb 2-16 (antibody, human IgG1, kappa)
heavy: not shown
light: B2 light
modifications: afucosylated Fc glycan
notes: Same chains as 2-13, produced with 2-deoxy-2-fluoro-L-fucose (afucosylated)
B3 was tested, and the “ADCP % Max of phagocytosis” value [1] was 8.29%, the “% of labelled cells” value [14] was 34% and the EC50 [14] was 400 pM. For the same binder, the “MFI fold change to isotype ctrl” value [14] was 2.5 fold, the “ADCC EC50, HUT78 targets, NK cells Donor 1” value [15] was 2.24 pM and the “ADCC EC50, HUT78 targets, NK cells Donor 2” value [15] was 0.42 pM.

B4: Rituximab (antibody, V domains shown)
VH: QVQLQQPGAELVKPGASVKMSCKASGYTFTSYNMHWVKQTPGRGLEWIGAIYPGNGDTSYNQKFKGKATLTADKSSSTAYMQLSSLTSEDSAVYYCARSTYYGGDWYFNVWGAGTTVTVSA
VL: QIVLSQSPAILSASPGEKVTMTCRASSSVSYIHWFQQKPGSSPKPWIYATSNLASGVPVRFSGSGSGTSYSLTISRVEAEDAATYYCQQWTSNPPTFGGGTKLEIK
For B4, the “EC50 (read off the curve)” value [17] was roughly 0.1 µg/mL.
